Tests used:
[1] = tested on: HEK-OX1R cells expressing recombinant OX1R; test: Apoptosis in HEK-OX1R cells (annexin V-PE binding, Guava nexin kit); assay type: cell-based, human
HT-29 cells = test: Growth of tumors from xenografted human HT-29 cells in nude mice; assay type: in vivo; conditions: ip, 2 injections/week, Day 43
Experimental: FIG. 8: Effect of inoculation of orexin-A and C2 antibody on the growth of tumors developed by xenografted human HT-29 cells in nude mice. Colon adenocarcinoma derived cells, HT-29, were inoculated in the flank of nude mice at day 0. Mice were injected at day 1 (2 injections/week) intraperitoneally with 100 μl of orexin-A solution (1.4 μmoles of orexin-A/Kg (white circles)) or with 100 μl of C2 antibody solution (0.065 μmoles/Kg (black triangles) or 0.02 μmoles/Kg (white triangles)) or with 100 μl of PBS (black circles) for control. The inventors have tested the ability of C2 antibody to inhibit the tumor development of xenografted nude mice with the human colon adenocarcinoma cell line, HT-29. After subcutaneous injection of 1.5×10^6 HT-29 cells in mice, animals were treated by 2 intraperitoneal (ip) injection/week of Orexin-A (100 μg/injection corresponding to 1.4 μmoles of orexin-A/Kg) or two doses of C2 antibody (200 μg/injection or 50 μg/injection corresponding to 0.065 μmoles/Kg and 0.02 μmoles/Kg, respectively). Control was determined by ip injection of 100 μl of PBS. The experiment was conducted during 45 days and the tumor volume was estimated by measuring the short and long axes of developedtumors each ⅔ days.

[2] = tested on: CHO cells lines transfected with OX1R of rat; test: Cross-reaction: cells transfected with rat OX1R; assay type: cell-based; conditions: 0.1 μM, 48 h
SW48 cells = test: Cell growth of colon cancer cell line SW48; assay type: cell-based; conditions: 0.1 μM, 48 h
Experimental: (§1) Cells were treated for 48 h with 0.1 μM of each compound and then cells were counted. Results were expressed as the percentage of untreated cell number (Control).
(§2) We have tested the ability of antibodies to inhibit the cellular growth in cancer cell lines derived from colon cancer (SW48, LoVo and HCT-116 cells) and pancreas cancer (AsPC-1 cells). […] D4 and H7 have a weak effect. […] As previously described (see above) orexins are able to induce a mitochondrial apoptosis in cancer cell lines. We test the ability of antibodies to induce apoptosis in HEK-OX1R cells and colonic cancer cell line LoVo. […] This effect was dose-dependent. Indeed when HEK-OX1R cells were treated with 0.01 μM of C2 antibody, cell apoptosis was only of 6±0.7% of total cells.

LoVo cells = test: Cell growth of colon cancer cell line LoVo; assay type: cell-based; conditions: 0.1 μM, 48 h
Experimental: as §1, §2

AsPC-1 cells = test: Cell growth of pancreas cancer cell line AsPC-1; assay type: cell-based; conditions: 0.1 μM, 48 h
Experimental: as §1, §2

[3] = tested on: HEK-OX1R cells expressing recombinant OX1R; test: Cell growth of HEK-OX1R cells (cell counting); assay type: cell-based, human; conditions: 0.1 μM, 48 h
LoVo cancer cell line = test: Apoptosis in LoVo cancer cell line; assay type: cell-based
Source text: as §2

[4] = tested on: CHO cells lines transfected with OX1R of mouse; test: Cross-reaction: cells transfected with mouse OX1R; assay type: cell-based; conditions: 0.1 μM, 48 h
[5] = 100 μg/injection (1.4 μmoles/Kg)
[6] = 200 μg/injection (0.065 μmoles/Kg)
[7] = low dose, 50 μg/injection (0.02 μmoles/Kg)

O=S(=O)(O)c1ccc2cc(N=Nc3cc(S(=O)(=O)O)c4cccnc4c3O)ccc2c1 [NSC-87877, reference compound]
effect of SHP-2 inhibitor on orexin-induced apoptosis ([1]; NSC-87877 50 μM): blocks orexin-induced apoptosis

Orexin-A (QPLPDCCRQKTCSCRLYELLHGAGNHAAGILTL) [orexin A, a 33 amino acid neuropeptide, native OX1R ligand, reference compound]
inhibition of tumor growth (HT-29 cells; [5]): about 65% | tumor volume (HT-29 cells; [5]): ~570±100 mm^3

B1: C2: human monoclonal anti-OX1R antibody from phage display; VH SEQ ID NO:1, VL SEQ ID NO:2 (antibody, V domains shown)
VH: EVQLVESGGSLVKPGGSLRLSCAASGFTFSNSYMNWVRQAPGKGLEWISSIYGSSRYIDYADFVKGRFTISRDNATNSLYLQMNSLRAEDTAVYYCVRSSSYYGSGMDVWGRGTLVTVSS
VL: QSVLTQPASVSGSPGQSITISCAGTSSDVGGYGSVSWYQQHPGKAPKLMIYYDSYRPSGVSNRFSGSKSGNTASLTISGLQAEDEADYYCSSNTNSSTRVFGGGTKLAVLG
modifications: Synthetic VH sequence of C2; Synthetic VL sequence of C2
promotion of apoptosis of cells transfected with rat OX1R [2]: able to promote apotosis | inhibition of cell growth in SW48 cells (SW48 cells): inhibit the cell growth in SW48 cells similarly to OxB | apoptosis in HEK-OX1R cells, % of total cells ([1]; 0.01 μM): 6±0.7% | apoptosis in HEK-OX1R cells, % of total cells ([1]; 0.1 μM, 48 h): 16±2% | apoptosis and growth inhibition in the presence of SHP inhibitor ([1]; with NSC 87877): totally abolished | inhibition of cell growth in LoVo cells (LoVo cells): inhibit the cell growth in LoVo cells similarly to OxB | inhibition of cell growth in AsPC-1 cells (AsPC-1 cells): cell growth inhibition similar to OxB effect | reduction of tumor development (HT-29 cells; [6]): about 60% | tumor volume (HT-29 cells; [6]): ~650±98 mm^3 | inhibition of tumor growth (HT-29 cells; [7]): 45% | tumor volume (HT-29 cells; [7]): ~885±130 mm^3 | reduction of HEK-OX1R cell number ([3]; versus untreated cells): ~37±3% | inhibition of HEK-OX1R cellular growth in the presence of SHP inhibitor ([3]; with 50 μM NSC 87877): totally reversed | apoptotic response in LoVo cancer cell line (LoVo cancer cell line; 0.01 μM): strongly reduce the apoptotic response | induction of apoptosis in LoVo cancer cell line (LoVo cancer cell line; 0.1 μM, 48 h): able to induce apoptosis | promotion of apoptosis of cells transfected with mouse OX1R [4]: able to promote apotosis
